The subject of data set [1] is tobacco Cdc2 protein, designated Cdc2a.
Data set [2] has as its system dexamethasone-inducible Cdc25 gene. Kind of data set: Induction of Cdc25 mRNA and protein (northern and western blot). Format: cell-based, N. plumbaginifolia. Particulars: inducible cell lines; 12 h induction. Here is the method:
FIG. 1a is a copy of a photographic representation of a northern blot hybridisation showing the induction of Cdc25 mRNA in tobacco cells containing a dexamethasone-inducible Cdc25 gene, in the absence of exogenous cytokinin. […] Total RNA was extracted from tobacco cells either in the absence of added dexamethasone (lane 0), or after 12 h induction with […], or 0.10 μM, or 1.00 μM, or 10.00 μM dexamethasone and then loaded onto agarose gels (60 μg aliquots RNA per lane), transferred to membrane support and probed with a Cdc25-specific probe.
FIG. 1b is a copy of a photographic representation of a western blot showing the induction of p67^Cdc25 protein in tobacco cells containing a dexamethasone-inducible Cdc25 gene, in the absence of exogenous cytokinin. […] Total protein was extracted from tobacco cells either in the absence of added dexamethasone (lane 1), or after 12 h induction with 0.01 μM dexamethasone (Lane 2), or 0.10 μM dexamethasone (Lane 3), or 1.00 μM dexamethasone (Lane 4), or 10.00 µM dexamethasone (Lane 5) and then loaded onto SDS/polyacrylamide gels ([…] aliquots total soluble p67^cdc25 protein per lane), transferred to membrane support and probed with antibody specific for the Cdc25-specific probe. p67^Cdc25 was detected by western blot of 50 μg aliquots of total soluble p67^Cdc25 protein. […]
(Immunoblotting shows a protein as a band on a membrane.)

Data set [3] deals with tobacco cells containing a dexamethasone-inducible Cdc25 gene. Particulars: auxin only.
Data set [4] concerns the target tyrosine phosphorylated Cdc2 from arrested Cdc25-22 mutant fission yeast, P04551.
For data set [5], the target named is tobacco Cdc2 protein, designated Cdc2a. This is another data set of the same source.
Another data set deals with plant Cdc2 enzyme. Kind of data set: In vitro activation of plant Cdc2 histone kinase by GST-Cdc25. In kind it is biochemical, tobacco. From the text:
FIG. 2e is a graphical representation showing the change in activity of Cdc2 histone kinase in transgenic tobacco cells containing a dexamethasone-inducible Cdc25 gene, progressing from the late G2 phase hormonal control point into division and following their stimulation with cytokinin. The Cdc2 histone kinase was purified using p13^suc1 beads and treated with GST-Cdc25 fusion protein that had been produced in Escherichia coli cells.
Both Cdc2 and Cdc25 enzyme activities were extracted from tobacco cells, by grinding the cells in liquid nitrogen. For Cdc2 extraction, NDE buffer containing 25 mM HEPES (pH 7.2) with protease and phosphatase inhibitors was used. For Cdc25 extraction, PDE buffer, containing 25 mM MOPS (pH 7.2), 100 mM NaCl, 10 mM DTT, 5 mM EDTA, 1mM EGTA, 1% NP-40, 50 mM NaF, 0.5 mM PMSF, 3 μg ml^−1 leupeptin, and 20 μg ml^−1 aprotinin, was used.
To measure Cdc2 activity, the phosphorylation of H1 histone was followed.
We tested this by investigating whether Cdc25 enzyme could activate Cdc2 from cells in prophase and whether the extent of activation by Cdc25 declined when activation had already occurred in vivo. […] After 12 hours, Cdc2 activity declined during anaphase and the enzyme then became unresponsive to GST-Cdc25, consistent with the anaphase decline in activity being due to proteolysis of cyclin, as observed for cyclin 1b in maize mitosis.

tyrosine phosphorylated Cdc2 from arrested Cdc25-22 mutant fission yeast, P04551, sequence (P04551 whole entry, looked up, change not shown, tested part not stated): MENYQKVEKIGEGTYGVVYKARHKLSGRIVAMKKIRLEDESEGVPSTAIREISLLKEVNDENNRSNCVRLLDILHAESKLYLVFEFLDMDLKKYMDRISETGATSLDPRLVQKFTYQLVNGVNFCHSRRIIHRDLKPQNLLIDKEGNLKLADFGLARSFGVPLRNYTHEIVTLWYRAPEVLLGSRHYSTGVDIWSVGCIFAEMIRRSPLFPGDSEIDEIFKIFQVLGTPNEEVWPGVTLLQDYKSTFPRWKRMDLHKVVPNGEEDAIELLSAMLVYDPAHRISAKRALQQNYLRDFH

For the molecule “plant Cdc25 protein (67 kDa tobacco protein)”, the “Cdc2 histone kinase activity after incubation with immunoprecipitated Cdc25” value in data set [1] was “non-transgenic plant cells also contain a Cdc25 activity, unambiguously of plant origin, that is both present following cytokinin stimulation and capable of activating plant Cdc2”.

For `C[C@@H]1C[C@H]2[C@@H]3CCC4=CC(=O)C=C[C@]4(C)[C@@]3(F)[C@@H](O)C[C@]2(C)[C@@]1(O)C(=O)CO` [dexamethasone], the “concentration at which Cdc25 mRNA and protein accumulated” value in data set [2] fell in the range of 0.01 to 10 µM. The “dexamethasone concentration that induced division” value in data set [3] (cells arrested at G2 phase hormonal control point, no cytokinin, 12 h induction) lay within 0.01 to 10 µM. The “optimum concentration for induction of division” value in data set [3] (independent clones, G2-arrested cells) was 0.1 µM.

B1: fission yeast Cdc25 phosphoprotein phosphatase expressed in transgenic tobacco cells (protein)
chain: MDSPLSSLSFTNTLSGKRNVLRPAARELKLMSDRNANQELDFFFPKSKHIASTLVDPFGKTCSTASPASSLAADMSMNMHIDESPALPTPRRTLFRSLSCTVETPLANKTIVSPLPESPSNDALTESYFFRQPASKYSITQDSPRVSSTIAYSFKPKASIALNTTKSEATRSSLSSSSFDSYLRPNVSRSRSSGNAPPFLRSRSSSSYSINKKKGTSGGQATRHLTYALSRTCSQSSNTTSLLESCLTDDTDDFELMSDHEDTFTMGKVADLPESSVELVEDAASIQRPNSDFGACNDNSLDDLFQASPIKPIDMLPKINKDIAFPSLKVRSPSPMAFAMQEDAEYDEQDTPVLRRTQSMFLNSTRLGLFKSQDLVCVTPKQSTKESERFISSHVEDLSLPCFAVKEDSLKRITQETLLGLLDGKFKDIFDKCIIIDCRFEYEYLGGHISTAVNLNTKQAIVDAFLSKPLTHRVALVFHCEHSAHRAPHLALHFRNTDRRMNSHRYPFLYYPEVYILHGGYKSFYENHKNRCDPINYVPMNDASHVMTCTKAMNNFKRNATFMRTKSYTFGQSVLASPDVNDSPTAMHSLSTLRRF
Turning to B1, the “activation of yeast Cdc2 H1 histone kinase (phosphorylation of H1 histone)” value in data set [4] is on record as “appearance of Cdc25 activity, which was detected by its activation of yeast Cdc2 Hi histone kinase”.

B2: GST-Cdc25 catalytic core fusion protein synthesised in Escherichia coli (protein)
chain: SSHVEDLSLPCFAVKEDSLKRITQETLLGLLDGKFKDIFDKCIIIDCRFEYEYLGGHISTAVNLNTKQAIVDAFLSKPLTHRVALVFHCEHSAHRAPHLALHFRNTDRRMNSHRYPFLYYPEVYILHGGYKSFYENHKNRCDPINYVPMNDASHVMTCTKAMNNFKRNATFMRTKSYTFGQSVLASPDVNDSPTAMHSLSTLRRF
Take B2: the “Cdc2 histone kinase activity after treatment with GST-Cdc25” value in data set [5] was “excess bacterially-synthesised GST-Cdc25 could activate plant Cdc2 enzyme that was extracted in prophase between 3 hours and 12 hours”.

B3: GST-Cdc25: recombinant GST-Cdc25 catalytic core fusion protein synthesised in Escherichia coli (protein)
chain: SSHVEDLSLPCFAVKEDSLKRITQETLLGLLDGKFKDIFDKCIIIDCRFEYEYLGGHISTAVNLNTKQAIVDAFLSKPLTHRVALVFHCEHSAHRAPHLALHFRNTDRRMNSHRYPFLYYPEVYILHGGYKSFYENHKNRCDPINYVPMNDASHVMTCTKAMNNFKRNATFMRTKSYTFGQSVLASPDVNDSPTAMHSLSTLRRF
modifications: left off: a dimerising Fc or GST
notes: recombinant GST-Cdc25 catalytic core fusion protein synthesised in Escherichia coli
For B3, in the data set on plant Cdc2 enzyme (Cdc2 extracted after 12 hours), the “response of Cdc2 to GST-Cdc25 in anaphase” value was “unresponsive”. The “activation of plant Cdc2 enzyme” value in the data set with plant Cdc2 enzyme (excess bacterially-synthesised GST-Cdc25, Cdc2 extracted in prophase between 3 hours and 12 hours) is listed as “could activate plant Cdc2 enzyme”.
